Experimental findings from article PMC8292422 (Nature Communications, 2021) are described below.

The stoichiometry N is the number of molecules, sites or subunits per partner or assembly. In general, koff refers to the rate constant with which the complex falls apart. A lower koff goes with a long-lived complex. Usually Kd stands for the equilibrium constant for the complex coming apart. Read a high Kd as a looser complex.

In series [1] the target is T1, DrBphP (Deinococcus radiodurans, UniProt Q9RZA4).
T1 construct: gene bphP; full length (755 residues), C-terminal His6 tag, pET21b(+), E. coli BL21(DE3), assembled with biliverdin
T1 sequence (Q9RZA4 1-755): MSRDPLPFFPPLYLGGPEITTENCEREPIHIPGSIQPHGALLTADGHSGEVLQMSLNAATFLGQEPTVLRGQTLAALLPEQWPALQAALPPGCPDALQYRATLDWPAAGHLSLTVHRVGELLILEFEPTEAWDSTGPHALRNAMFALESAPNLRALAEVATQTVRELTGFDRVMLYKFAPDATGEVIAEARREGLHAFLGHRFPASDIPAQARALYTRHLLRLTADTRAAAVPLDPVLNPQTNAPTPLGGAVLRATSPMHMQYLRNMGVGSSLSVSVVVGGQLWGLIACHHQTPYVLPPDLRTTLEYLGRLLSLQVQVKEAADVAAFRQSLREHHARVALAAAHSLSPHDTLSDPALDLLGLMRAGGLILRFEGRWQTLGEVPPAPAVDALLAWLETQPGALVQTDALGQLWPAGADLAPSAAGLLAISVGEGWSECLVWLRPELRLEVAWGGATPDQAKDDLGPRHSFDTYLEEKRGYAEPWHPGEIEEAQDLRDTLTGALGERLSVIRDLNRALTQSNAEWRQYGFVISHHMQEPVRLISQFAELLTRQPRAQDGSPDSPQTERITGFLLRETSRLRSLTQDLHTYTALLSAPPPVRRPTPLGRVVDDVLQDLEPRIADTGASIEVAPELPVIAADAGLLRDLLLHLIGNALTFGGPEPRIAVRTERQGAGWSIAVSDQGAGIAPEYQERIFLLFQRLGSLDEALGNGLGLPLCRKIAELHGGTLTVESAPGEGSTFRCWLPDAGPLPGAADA
The series can be described thus: Phos-tag gel, dephosphorylation of phospho-DrRR with and without ATP. It is filed as biochemical. Particulars: 1 mM ATP, phospho-DrRR as substrate, 5 mM MgCl2, pH 7.8, 25 °C, dark or red light.

Series [2] addresses T2, AtRR1 (Agrobacterium fabrum, UniProt Q7CY46).
T2 construct: gene Atu1989; REC-domain-only response regulator, His6 tag, pET21b(+) with N-terminal T7 tag, E. coli BL21(DE3)
T2 sequence (Q7CY46 1-151): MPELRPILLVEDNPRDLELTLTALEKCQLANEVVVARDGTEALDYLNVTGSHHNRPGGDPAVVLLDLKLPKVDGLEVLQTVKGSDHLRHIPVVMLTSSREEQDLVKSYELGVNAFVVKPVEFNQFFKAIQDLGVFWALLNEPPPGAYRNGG
The series can be described thus: chemical phosphorylation, Phos-tag gel. It is filed as biochemical. The conditions noted are these: 50 mM acetyl phosphate, 5 mM MgCl2, pH 7.8, 37 °C, 30 min.

Series [3] deals with the molecule itself. In words: SEC; EGFP-labeled response regulator alone; Superdex-200 Increase 3.2/300; 25 mM Tris/HCl pH 7.8, 5 mM MgCl2, 4 mM 2-mercaptoethanol, 5% ethylene glycol; 24 µl at 5 mg/ml; plotted at 280 nm. In general terms: In gel filtration, larger molecules generally elute earlier.
For series [4], the target named is T3, response regulator from Deinococcus radiodurans (DrRR) (Deinococcus radiodurans strain R1, UniProt Q9RZA5 1-149).
T3 chain: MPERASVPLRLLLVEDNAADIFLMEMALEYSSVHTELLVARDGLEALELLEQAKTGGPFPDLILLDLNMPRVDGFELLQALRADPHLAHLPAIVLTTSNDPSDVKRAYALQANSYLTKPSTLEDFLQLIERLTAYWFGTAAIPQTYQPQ
The series can be described thus: SPR; red light (R), kinetic.

The target of series [5] is T3, response regulator from Deinococcus …. The series can be described thus: ITC; 1 mM AMP-PNP.
Series [6] has the same target. The series can be described thus: SPR; red light (R), kinetic.
Series [7] has the same target. The series can be described thus: SPR; dark (D), kinetic. (Surface plasmon resonance follows binding to a sensor surface in real time, without labels.)
For series [8] the target is unchanged. In words: SPR; dark (D), kinetic.
Series [9] has the same target. In words: ITC; Ca2+ buffer. Background: In ITC the heat of successive injections is recorded.
Series [10] shares this target. The series can be described thus: ITC; Tris pH 8.0.
Series [11] has the same target. The series can be described thus: ITC; dark (D), 30 mM Tris/HCl, pH 8.0.
The target of series [12] is T4, bacteriophytochrome from Deinococcus radiodurans (DrBphP), wild type (Deinococcus radiodurans strain R1, UniProt Q9RZA4 1-755, biliverdin chromophore (molar excess of biliverdin hydrochloride added to the lysate; thioether linkage to the conserved cysteine within the PAS domain)).
T4 construct: Pr (dark or far-red) and Pfr (red light) states are told apart by the assay; source: E. coli BL21 (DE3), purified (NiNTA, SEC)
T4 sequence: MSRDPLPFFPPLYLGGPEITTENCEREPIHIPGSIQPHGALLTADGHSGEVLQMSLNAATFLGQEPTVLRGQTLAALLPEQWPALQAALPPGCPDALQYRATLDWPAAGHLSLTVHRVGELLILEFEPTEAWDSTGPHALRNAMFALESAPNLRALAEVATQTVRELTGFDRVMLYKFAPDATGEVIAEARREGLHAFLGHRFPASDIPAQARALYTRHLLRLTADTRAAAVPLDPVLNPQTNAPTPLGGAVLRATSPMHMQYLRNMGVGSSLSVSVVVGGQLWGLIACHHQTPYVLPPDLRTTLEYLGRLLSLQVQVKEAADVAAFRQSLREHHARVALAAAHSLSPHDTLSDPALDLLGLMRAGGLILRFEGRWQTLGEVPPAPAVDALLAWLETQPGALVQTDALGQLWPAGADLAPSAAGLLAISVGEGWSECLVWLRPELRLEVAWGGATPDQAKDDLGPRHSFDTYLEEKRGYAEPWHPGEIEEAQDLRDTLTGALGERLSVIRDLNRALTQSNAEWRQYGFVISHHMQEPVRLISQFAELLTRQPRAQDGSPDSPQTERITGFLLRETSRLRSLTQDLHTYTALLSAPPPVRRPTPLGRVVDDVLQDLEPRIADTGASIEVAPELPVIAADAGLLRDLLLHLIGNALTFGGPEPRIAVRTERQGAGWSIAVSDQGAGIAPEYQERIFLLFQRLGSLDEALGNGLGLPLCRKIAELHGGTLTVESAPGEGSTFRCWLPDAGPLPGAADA
The series can be described thus: SPR; Biacore X; response regulator coupled (EDC/NHS) on a carboxymethyldextran chip, phytochrome flowed after red light (655 nm, Pfr); 20 mM HEPES, 300 mM NaCl, 5 mM MgCl2, 0.10% Tween20, pH 7.5; room temperature; steady-state fit. The conditions noted are these: both partners purified.

Series [13] has as its target DrBphP E536A variant (Deinococcus radiodurans strain R1, UniProt Q9RZA4 1-755, E536A, biliverdin chromophore (molar excess of biliverdin hydrochloride added to the lysate)). In words: ITC.
For series [14], the target named is T5, DrBphP E536A variant (Deinococcus radiodurans strain R1, UniProt Q9RZA4 1-755, E536A, biliverdin chromophore (molar excess of biliverdin hydrochloride added to the lysate)).
T5 construct: source: E. coli BL21 (DE3), purified (NiNTA, SEC)
T5 sequence: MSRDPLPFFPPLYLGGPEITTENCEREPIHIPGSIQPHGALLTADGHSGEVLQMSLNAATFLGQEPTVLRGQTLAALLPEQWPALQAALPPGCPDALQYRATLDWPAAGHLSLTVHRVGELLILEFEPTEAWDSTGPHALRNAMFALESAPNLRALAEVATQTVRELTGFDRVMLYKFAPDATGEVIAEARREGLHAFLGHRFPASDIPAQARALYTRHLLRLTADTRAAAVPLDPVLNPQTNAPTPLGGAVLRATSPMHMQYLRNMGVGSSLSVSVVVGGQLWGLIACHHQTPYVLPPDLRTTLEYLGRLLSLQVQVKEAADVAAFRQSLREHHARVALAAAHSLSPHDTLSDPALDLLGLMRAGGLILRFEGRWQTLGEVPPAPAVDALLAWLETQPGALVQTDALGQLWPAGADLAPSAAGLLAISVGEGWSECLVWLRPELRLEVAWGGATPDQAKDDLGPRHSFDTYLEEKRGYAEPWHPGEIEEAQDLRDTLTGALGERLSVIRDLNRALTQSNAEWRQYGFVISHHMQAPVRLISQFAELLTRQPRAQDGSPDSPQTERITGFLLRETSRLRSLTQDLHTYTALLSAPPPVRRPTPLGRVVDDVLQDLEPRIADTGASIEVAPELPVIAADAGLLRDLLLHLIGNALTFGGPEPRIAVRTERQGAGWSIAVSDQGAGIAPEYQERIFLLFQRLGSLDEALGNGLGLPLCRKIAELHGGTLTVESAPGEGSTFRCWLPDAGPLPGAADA
In words: ITC; MicroCal PEAQ-ITC; BphP (30-50 µM) in the cell in the Pr state (785 nm), RR (750-800 µM) in the syringe; 25 °C, dark; Tris/HCl pH 7.8, 5 mM MgCl2, 4 mM 2-mercaptoethanol, 5% ethylene glycol; single-site fit; also run with AMP-PNP or Ca2+ added. Particulars: both partners purified.

The target in series [15] is T4, bacteriophytochrome from Deinococcus …. The description is as above. Particulars: both partners purified.
For series [16] the target is unchanged. The series can be described thus: SPR; Biacore X; response regulator coupled (EDC/NHS) on a carboxymethyldextran chip, phytochrome flowed; dark (Pr, far-red 785 nm pre-illumination); 20 mM HEPES, 300 mM NaCl, 5 mM MgCl2, 0.10% Tween20, pH 7.5; room temperature; steady-state (Req) fit, 1:1 model. Particulars: both partners purified.
Series [17] has the same target. The series can be described thus: SPR; same sensorgrams as the dark steady-state SPR; 1:1 Langmuir kinetic fit of ka/kd; DrBphP 8-67 µM. The conditions noted are these: both partners purified.

Consider `Nc1ncnc2c1ncn2[C@@H]1O[C@H](COP(=O)(O)OP(=O)(O)OP(=O)(O)O)[C@@H](O)[C@H]1O` [ATP], for which, in series [1], the “Phos-tag gel, dephosphorylation of phospho-DrRR with and without ATP” value was “the phosphatase activity in DrBphP depended on ATP addition”.
Turning to `CC(=O)OP(=O)(O)O` [acetyl phosphate], in series [2], the “chemical phosphorylation, Phos-tag gel” value is given as “whereas AtRR1 responded to the treatment weakly”.

B1: EGFP-labeled AtRR1 (natural protein)
chain: MPELRPILLVEDNPRDLELTLTALEKCQLANEVVVARDGTEALDYLNVTGSHHNRPGGDPAVVLLDLKLPKVDGLEVLQTVKGSDHLRHIPVVMLTSSREEQDLVKSYELGVNAFVVKPVEFNQFFKAIQDLGVFWALLNE
notes: also called EGFP-AtRR1; source: E. coli BL21 (DE3), purified (NiNTA, SEC)
For the molecule B1, the “stoichiometry N” value in [3] stood at 2.

B2: bacteriophytochrome from Deinococcus radiodurans (DrBphP), wild type (enzyme)
chain: MSRDPLPFFPPLYLGGPEITTENCEREPIHIPGSIQPHGALLTADGHSGEVLQMSLNAATFLGQEPTVLRGQTLAALLPEQWPALQAALPPGCPDALQYRATLDWPAAGHLSLTVHRVGELLILEFEPTEAWDSTGPHALRNAMFALESAPNLRALAEVATQTVRELTGFDRVMLYKFAPDATGEVIAEARREGLHAFLGHRFPASDIPAQARALYTRHLLRLTADTRAAAVPLDPVLNPQTNAPTPLGGAVLRATSPMHMQYLRNMGVGSSLSVSVVVGGQLWGLIACHHQTPYVLPPDLRTTLEYLGRLLSLQVQVKEAADVAAFRQSLREHHARVALAAAHSLSPHDTLSDPALDLLGLMRAGGLILRFEGRWQTLGEVPPAPAVDALLAWLETQPGALVQTDALGQLWPAGADLAPSAAGLLAISVGEGWSECLVWLRPELRLEVAWGGATPDQAKDDLGPRHSFDTYLEEKRGYAEPWHPGEIEEAQDLRDTLTGALGERLSVIRDLNRALTQSNAEWRQYGFVISHHMQEPVRLISQFAELLTRQPRAQDGSPDSPQTERITGFLLRETSRLRSLTQDLHTYTALLSAPPPVRRPTPLGRVVDDVLQDLEPRIADTGASIEVAPELPVIAADAGLLRDLLLHLIGNALTFGGPEPRIAVRTERQGAGWSIAVSDQGAGIAPEYQERIFLLFQRLGSLDEALGNGLGLPLCRKIAELHGGTLTVESAPGEGSTFRCWLPDAGPLPGAADA
modifications: biliverdin chromophore (molar excess of biliverdin hydrochloride added to the lysate; thioether linkage to the conserved cysteine within the PAS domain)
Take B2: the results for the koff in series [4] and in [8] were 0.0065 s⁻¹ and 0.0046 s⁻¹, respectively. In addition, the Kd in [5] was about 11 µM; in series [6], 15.5 µM; in series [7] it was 6.2 µM; in series [9], 2.8 µM; in series [10], 35 µM; in [11], 35 µM.

B3: response regulator from Deinococcus radiodurans (DrRR) (natural protein)
chain: MPERASVPLRLLLVEDNAADIFLMEMALEYSSVHTELLVARDGLEALELLEQAKTGGPFPDLILLDLNMPRVDGFELLQALRADPHLAHLPAIVLTTSNDPSDVKRAYALQANSYLTKPSTLEDFLQLIERLTAYWFGTAAIPQTYQPQ
notes: consists only of a receiver (REC) domain; Forms dimers in the crystal (four monomers, two dimers in the asymmetric unit); also called Q9RZA5_DEIRA; source: E. coli BL21 (DE3), purified (NiNTA, SEC)
On to B3, for which the Kd is 60 ± 7 µM in [12]; 13 µM in [13]; 8.1 µM in [15]; 43 ± 8 µM in [16]; about 10 µM in series [17]. For the same molecule, the binding result in [14] is “binds”.
